Experimental data from the supplement of paper PMC9732359.
± gives the uncertainty stated by the source.

Assay: protein stability index of a GFP-peptide fusion (yeast GPS) (PSI 1-4); higher = more stable; sorted into four equal gates, so the index is relative within each strain
Procedure, shortened: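 Tiled 17-residue yeast protein peptides were fused downstream of GFP in a plasmid that also expresses Cherry, and the pooled library was carried in yeast. Mid-log cultures in leucine-free medium were sorted into four equal gates by GFP/Cherry fluorescence ratio, and plasmids from each gate were PCR-amplified and Illumina-sequenced, with reads assigned to strains by barcodes. The protein stability index for each peptide was each gate's read frequency times its gate number, summed.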

Row | Sequence | protein stability index (doa10∆) | protein stability index (pdr5∆) | protein stability index (san1∆) | protein stability index (ubr1∆)
1 | QLKIQNRQAAASVVPSA [RPL12A] | 1.82 ± 0.035 | 2.48 ± 0.042 | 2.05 ± 0.051 | 2.08 ± 0.03
2 | SHLVVPYCPIASITGTG [YMR129W/POM152] | 1.36 ± 0.065 | 1.37 ± 0.066 | 1.33 ± 0.1 | 1.36 ± 0.03
3 | SNISDEKSRISERDSKD [YMR129W/POM152] | 3.06 ± 0.1 | 3.12 ± 0.076 | 2.87 ± 0.075 | 3.13 ± 0.063
4 | QSRLMSTSYHLNSTLES [MED6] | 2.79 ± 0.072 | 2.79 ± 0.054 | 1.97 ± 0.063 | 2.37 ± 0.062
5 | QIAKFVVGLGERVSPTD [RPT1] | 2.62 ± 0.099 | 1.33 ± 0.04 | 2.05 ± 0.13 | 1.38 ± 0.051
6 | HLRVRVHPFHVLRINKM [RPL10] | 1.12 ± 0.09 | 1.21 ± 0.072 | 1.2 ± 0.087 | 1.27 ± 0.08
7 | KKLNKNKKLIKKLSKKY [RPL1A] | 3.78 ± 0.21 | 3.43 ± 0.11 | 3.1 ± 0.12 | 3.52 ± 0.22
8 | LAIADVETKLETKVDEL [DSN1] | 3.04 ± 0.084 | 3.09 ± 0.074 | 3.19 ± 0.05 | 2.85 ± 0.087
9 | HGILDDLETSLSQSSSY [MED2] | 2.98 ± 0.083 | 3.33 ± 0.1 | 3.12 ± 0.099 | 3.29 ± 0.14
10 | SFLMRQFTRFFLLVPSK [ECM29] | 2.03 ± 0.067 | 2.03 ± 0.057 | 1.75 ± 0.12 | 2.31 ± 0.05
11 | INGWELTKAQKYLDQVL [RPL17B] | 2.74 ± 0.2 | 2.9 ± 0.17 | 2.86 ± 0.1 | 2.74 ± 0.063
12 | LLNLPPFQVSSFVKETK [SRB8] | 1.94 ± 0.039 | 1.88 ± 0.035 | 2.04 ± 0.05 | 2.02 ± 0.04
13 | VPTSIQTKRWPTMYTRL [SIN4] | 2.18 ± 0.048 | 2.57 ± 0.05 | 2.5 ± 0.047 | 2.62 ± 0.039
14 | NQDSVKTYALESINNVV [RPN2] | 3.23 ± 0.1 | 3.21 ± 0.1 | 2.95 ± 0.074 | 3.31 ± 0.058
15 | LFPNELYNVMGINKKKL [RPC31] | 3.09 ± 0.27 | 2.87 ± 0.24 | 3.29 ± 0.082 | 3.5 ± 0.26
16 | KEELLRDGVLTVTLNKN [RRP45] | 1.78 ± 0.054 | 2.11 ± 0.06 | 2.21 ± 0.084 | 2.06 ± 0.048
17 | DIIVAIKIFELKLPADA [IRR1] | 1.54 ± 0.078 | 1.21 ± 0.071 | 1.59 ± 0.14 | 1.83 ± 0.052
18 | QRITIPNVCNMKQYRDF [PRP28] | 2.85 ± 0.18 | 2.55 ± 0.092 | 2.07 ± 0.11 | 2.58 ± 0.11
19 | EDIVGALRRRVGPSEQN [REC8] | 2.28 ± 0.074 | 1.58 ± 0.052 | 2.71 ± 0.12 | 2.43 ± 0.075
20 | FKKAAPSPISHVAEIRS [RPB2] | 1.92 ± 0.051 | 1.94 ± 0.046 | 1.77 ± 0.058 | 1.81 ± 0.036
21 | LGDMAVCFNNLVDENTD [YCS4] | 2.61 ± 0.068 | 2.8 ± 0.077 | 2.72 ± 0.076 | 2.85 ± 0.064
22 | LGYARFILLDRLRQFNL [SMC4] | 2.36 ± 0.061 | 1.8 ± 0.065 | 1.75 ± 0.079 | 1.63 ± 0.061
23 | ILQNEHDYWNKIMQSIS [SRB4] | 2.14 ± 0.079 | 2.37 ± 0.062 | 1.92 ± 0.11 | 2.35 ± 0.082
24 | FTRIFLPIYDSLMSSQN [SIR3] | 2.24 ± 0.045 | 2.05 ± 0.038 | 1.99 ± 0.074 | 2.21 ± 0.037
25 | SNSMDRSSSASNEFVPN [SWI1] | 2.75 ± 0.055 | 2.71 ± 0.055 | 2.65 ± 0.046 | 2.69 ± 0.045
26 | KLTAERANLRKYREGQV [POP1] | 2.91 ± 0.058 | 3.02 ± 0.07 | 2.8 ± 0.073 | 3.01 ± 0.055

Row | Sequence | protein stability index (doa10∆) | protein stability index (pdr5∆) | protein stability index (san1∆) | protein stability index (ubr1∆)
27 | VVDGTVVSCSQHGFEVQ [RPB7] | 3.08 ± 0.071 | 3.11 ± 0.058 | 3.13 ± 0.068 | 3.28 ± 0.07
28 | MSSAAEKKPASKAPAEK [HTB2] | 2.74 ± 0.064 | 3.3 ± 0.081 | 2.69 ± 0.08 | 2.91 ± 0.054
29 | HEVEEILNELQPNARAL [SMC1] | 3.09 ± 0.13 | 3.4 ± 0.12 | 3.1 ± 0.099 | 3.44 ± 0.069
30 | LSSETGIKLALDPNLIT [SRB4] | 2.6 ± 0.052 | 3 ± 0.054 | 2.92 ± 0.056 | 2.51 ± 0.034
31 | ISKSLTFSQESGLMVIL [RRI2] | 2.23 ± 0.095 | 2.33 ± 0.11 | 2.29 ± 0.094 | 2.27 ± 0.072
32 | TMIKKTTLVTRREELQQ [SMC3] | 2.88 ± 0.13 | 2.94 ± 0.11 | 3.1 ± 0.16 | 2.55 ± 0.18
33 | GKRQVLIRPSSKVIIKF [RPS22A] | 3.04 ± 0.068 | 2.4 ± 0.046 | 2.78 ± 0.057 | 2.95 ± 0.042
34 | VHPRKSYKMNSSAADIT [PRP8] | 2.77 ± 0.079 | 2.88 ± 0.075 | 2.88 ± 0.053 | 2.74 ± 0.058
35 | LREHFKNTEEGKALVHH [QCR6] | 2.87 ± 0.11 | 3.23 ± 0.1 | 3.34 ± 0.057 | 3.09 ± 0.099
36 | PYFDYIFNDILAHVDQI [YJL039C/NUP192] | 1.9 ± 0.11 | 1.89 ± 0.077 | 2.39 ± 0.099 | 1.94 ± 0.054
37 | DTKLRLEKSKNECQRLQ [YIL149C/MLP2] | 2.57 ± 0.055 | 2.85 ± 0.059 | 2.54 ± 0.056 | 2.87 ± 0.04
38 | LGLKFDDLIAEENPIMQ [QCR7] | 2.46 ± 0.28 | 2.21 ± 0.14 | 2.32 ± 0.16 | 1.81 ± 0.079
39 | NGLAIRRAAYGVVRYVM [RPS3] | 2.06 ± 0.057 | 1.91 ± 0.064 | 1.77 ± 0.074 | 1.61 ± 0.053
40 | LKLNTSLPSKLTKYKEM [SRP68] | 1.77 ± 0.075 | 1.74 ± 0.065 | 1.58 ± 0.1 | 1.95 ± 0.053
41 | PLRMETIPILESDSKAT [DSN1] | 2.14 ± 0.062 | 2.54 ± 0.084 | 2.59 ± 0.14 | 2.27 ± 0.044
42 | IPVGDNTVVGISGDISD [PRE4] | 2.98 ± 0.13 | 3.12 ± 0.12 | 2.85 ± 0.16 | 3.02 ± 0.12
43 | STSSGKVSYAVKKPQKS [SNM1] | 2.04 ± 0.13 | 2.76 ± 0.1 | 2.01 ± 0.17 | 3.02 ± 0.16
44 | DPTKVTEFEFYLLEELE [SSN8] | 3.19 ± 0.065 | 3.28 ± 0.058 | 3.21 ± 0.068 | 3.25 ± 0.049
45 | NARKVVGASVVVVKNWG [RPS12] | 2.83 ± 0.15 | 2.69 ± 0.13 | 2.12 ± 0.24 | 2.67 ± 0.084
46 | KVDNDLRIELQSVYNDE [SRB8] | 3.16 ± 0.22 | 3.29 ± 0.24 | 3.26 ± 0.12 | 
47 | ICEPKETLSIFTNVPLN [YJL039C/NUP192] | 2.1 ± 0.046 | 2.24 ± 0.042 | 2.54 ± 0.05 | 2.36 ± 0.037
48 | HKMGVERSSKRLAKKPS [SIR3] | 3.33 ± 0.064 | 3.27 ± 0.067 | 3.24 ± 0.043 | 3.15 ± 0.062
49 | RLFIKPGQKMSLFSHRK [BRN1] | 2.74 ± 0.14 | 3.06 ± 0.11 | 3.07 ± 0.13 | 3.02 ± 0.12
50 | INELVLENFKSYAGKQV [SMC4] | 2.69 ± 0.075 | 2.75 ± 0.057 | 2.39 ± 0.079 | 2.74 ± 0.049
51 | GRSWDGKEHIVAALVSL [ECM29] | 1.88 ± 0.052 | 2.1 ± 0.063 | 1.56 ± 0.082 | 1.65 ± 0.042
52 | REPDFWVIRKQRRTNNS [MED6] | 3.51 ± 0.15 | 3.29 ± 0.09 | 2.97 ± 0.097 | 2.93 ± 0.096
